According to the supplement of paper PMC11316812:
± gives the standard deviation of the averaged measurements.

How the values were obtained:
hTERT-HMEC = experiment: percentage of EdU-negative (G0-arrested) nuclei per well, 72 h; higher = more G0 arrest; settings: reference: sequence is the full UniProt precursor, the tested protein was the secreted form or ectodomain
MCF7 = experiment: as above; settings: reference: sequence is the full UniProt precursor, the tested protein was the secreted form or ectodomain
[1] = protein concentration 0.017475 µM
[2] = protein concentration 0.17475 µM
[3] = protein concentration 0.0225 µM
[4] = protein concentration 0.0145 µM
[5] = protein concentration 0.0076025 µM
[6] = protein concentration 0.076025 µM
[7] = protein concentration 0.0209225 µM
[8] = protein concentration 0.209225 µM
[9] = protein concentration 0.03125 µM
[10] = protein concentration 0.3125 µM
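Further: secreted proteins added to cultured cells, EdU pulse at the end, nuclei found by Hoechst imaging, EdU status from nuclear versus surrounding ring intensity ratio, PBS as neutral control.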

## MEWPARLCGLWALLLCAGGGGGGGGAAPTETQPPVTNLSVSVENLCTVIWTWNPPEGASSNCSLWYFSHFGDKQDKKIAPETRRSIEVPLNERICLQVGSQCSTNESEKPSILVEKCISPPEGDPESAVTELQCIWHNLSYMKCSWLPGRNTSPDTNYTLYYWHRSLEKIHQCENIFREGQYFGCSFDLTKVKDSSFEQHSVQIMVKDNAGKIKPSFNIVPLTSRVKPDPPHIKNLSFHNDDLYVQWENPQNFISRCLFYEVEVNNSQTETHNVFYVQEAKCENPEFERNVENTSCFMVPGVLPDTLNTVRIRVKTNKLCYEDDKLWSNWSQEMSIGKKRNSTLYITMLLIVPVIVAGAIIVLLLYLKRLKIIIFPPIPDPGKIFKEMFGDQNDDTLHWKKYDIYEKQTKEETDSVVLIENLKKASQ
hTERT-HMEC; [1]
  percentage of EdU-negative: 5.5 ± 0.74%
hTERT-HMEC; [2]
  percentage of EdU-negative: 5.19 ± 0.27%
MCF7; [1]
  percentage of EdU-negative: 26.4 ± 0.86%
MCF7; [2]
  percentage of EdU-negative: 26.6 ± 2%

## MAALSRALGPLRTPAPPLWIGLFLVATGSQQSLAQPLPGNTTEATPRSLRASGSLCGPHAKAPYLCEATHEPAAARIRAQVPDTRWSRVGGQRFYSRVLSPLHRGPSGHTEASAQRSHMGKLKEPQPQDHKPGLGAS [Q6UXU0]
hTERT-HMEC; [3]
  percentage of EdU-negative: 5.38 ± 0.31%
hTERT-HMEC; protein concentration 0.225 µM
  percentage of EdU-negative: 5.92 ± 0.84%
MCF7; [3]
  percentage of EdU-negative: 27.9 ± 0.64%
MCF7; protein concentration 0.225 µM
  percentage of EdU-negative: 23.7 ± 2.8%

## MKLCVTVLSLLVLVAAFCSLALSAPMGSDPPTACCFSYTARKLPRNFVVDYYETSSLCSQPAVVFQTKRGKQVCADPSESWVQEYVYDLELN [Q8NHW4]
hTERT-HMEC; [4]
  percentage of EdU-negative: 5.26 ± 0.85%
hTERT-HMEC; protein concentration 0.145 µM
  percentage of EdU-negative: 6.68 ± 1.3%
MCF7; [4]
  percentage of EdU-negative: 23.4 ± 2%
MCF7; protein concentration 0.145 µM
  percentage of EdU-negative: 25.62 ± 0.055%

## MALGQKLFITMSRGAGRLQGTLWALVFLGILVGMVVPSPAGTRANNTLLDSRGWGTLLSRSRAGLAGEIAGVNWESGYLVGIKRQRRLYCNVGIGFHLQVLPDGRISGTHEENPYSLLEISTVERGVVSLFGVRSALFVAMNSKGRLYATPSFQEECKFRETLLPNNYNAYESDLYQGTYIALSKYGRVKRGSKVSPIMTVTHFLPRI
hTERT-HMEC; [5]
  percentage of EdU-negative: 4.73 ± 0.69%
hTERT-HMEC; [6]
  percentage of EdU-negative: 5.27 ± 0.17%
MCF7; [5]
  percentage of EdU-negative: 25.3 ± 0.82%
MCF7; [6]
  percentage of EdU-negative: 25 ± 2.6%

## MPGQELRTVNGSQMLLVLLVLSWLPHGGALSLAEASRASFPGPSELHSEDSRFRELRKRYEDLLTRLRANQSWEDSNTDLVPAPAVRILTPEVRLGSGGHLHLRISRAALPEGLPEASRLHRALFRLSPTASRSWDVTRPLRRQLSLARPQAPALHLRLSPPPSQSDQLLAESSSARPQLELHLRPQAARGRRRARARNGDHCPLGPGRCCRLHTVRASLEDLGWADWVLSPREVQVTMCIGACPSQFRAANMHAQIKTSLHRLKPDTVPAPCCVPASYNPMVLIQKTDTGVSLQTYDDLLAKDCHCI
hTERT-HMEC; [7]
  percentage of EdU-negative: 4.78 ± 0.13%
hTERT-HMEC; [8]
  percentage of EdU-negative: 8.07 ± 2.2%
MCF7; [7]
  percentage of EdU-negative: 23.8 ± 1.7%
MCF7; [8]
  percentage of EdU-negative: 30.5 ± 2.1%

## MAAPALSWRLPLLILLLPLATSWASAAVNGTSQFTCFYNSRANISCVWSQDGALQDTSCQVHAWPDRRRWNQTCELLPVSQASWACNLILGAPDSQKLTTVDIVTLRVLCREGVRWRVMAIQDFKPFENLRLMAPISLQVVHVETHRCNISWEISQASHYFERHLEFEARTLSPGHTWEEAPLLTLKQKQEWICLETLTPDTQYEFQVRVKPLQGEFTTWSPWSQPLAFRTKPAALGKDTIPWLGHLLVGLSGAFGFIILVYLLINCRNTGPWLKKVLKCNTPDPSKFFSQLSSEHGGDVQKWLSSPFPSSSFSPGGLAPEISPLEVLERDKVTQLLLQQDKVPEPASLSSNHSLTSCFTNQGYFFFHLPDALEIEACQVYFTYDPYSEEDPDEGVAGAPTGSSPQPLQPLSGEDDAYCTFPSRDDLLLFSPSLLGGPSPPSTAPGGSGAGEERMPPSLQERVPRDWDPQPLGPPTPGVPDLVDFQPPPELVLREAGEEVPDAGPREGVSFPWSRPPGQGEFRALNARLPLNTDAYLSLQELQGQDPTHLV
hTERT-HMEC; [9]
  percentage of EdU-negative: 4.64 ± 0.89%
hTERT-HMEC; [10]
  percentage of EdU-negative: 4.91 ± 0.7%
MCF7; [9]
  percentage of EdU-negative: 25.8 ± 3.7%
MCF7; [10]
  percentage of EdU-negative: 26.1 ± 1.1%

## MAQLWLSCFLLPALVVSVAANVAPKFLANMTSVILPEDLPVGAQAFWLVAEDQDNDPLTYGMSGPNAYFFAVTPKTGEVKLASALDYETLYTFKVTISVSDPYIQVQREMLVIVEDRNDNAPVFQNTAFSTSINETLPVGSVVFSVLAVDKDMGSAGMVVYSIEKVIPSTGDSEHLFRILANGSIVLNGSLSYNNKSAFYQLELKACDLGGMYHNTFTIQCSLPVFLSISVVDQPDLDPQFVREFYSASVAEDAAKGTSVLTVEAVDGDKGINDPVIYSISYSTRPGWFDIGADGVIRVNGSLDREQLLEADEEVQLQVTATETHLNIYGQEAKVSIWVTVRVMDVNDHKPEFYNCSLPACTFTPEEAQVNFTGYVDEHASPRIPIDDLTMVVYDPDKGSNGTFLLSLGGPDAEAFSVSPERAVGSASVQVLVRVSALVDYERQTAMAVQVVATDSVSQNFSVAMVTIHLRDINDHRPTFPQSLYVLTVPEHSATGSVVTDSIHATDPDTGAWGQITYSLLPGNGADLFQVDPVSGTVTVRNGELLDRESQAVYYLTLQATDGGNLSSSTTLQIHLLDINDNAPVVSGSYNIFVQEEEGNVSVTIQAHDNDEPGTNNSRLLFNLLPGPYSHNFSLDPDTGLLRNLGPLDREAIDPALEGRIVLTVLVSDCGEPVLGTKVNVTITVEDINDNLPIFNQSSYNFTVKEEDPGVLVGVVKAWDADQTEANNRISFSLSGSGANYFMIRGLVLGAGWAEGYLRLPPDVSLDYETQPVFNLTVSAENPDPQGGETIVDVCVNVKDVNDNPPTLDVASLRGIRVAENGSQHGQVAVVVASDVDTSAQLEIQLVNILCTKAGVDVGSLCWGWFSVAANGSVYINQSKAIDYEACDLVTLVVRACDLATDPGFQAYSNNGSLLITIEDVNDNAPYFLPENKTFVIIPELVLPNREVASVRARDDDSGNNGVILFSILRVDFISKDGATIPFQGVFSIFTSSEADVFAGSIQPVTSLDSTLQGTYQVTVQARDRPSLGPFLEATTTLNLFTVDQSYRSRLQFSTPKEEVGANRQAINAALTQATRTTVYIVDIQDIDSAARARPHSYLDAYFVFPNGSALTLDELSVMIRNDQDSLTQLLQLGLVVLGSQESQESDLSKQLISVIIGLGVALLLVLVIMTMAFVCVRKSYNRKLQAMKAAKEARKTAAGVMPSAPAIPGTNMYNTERANPMLNLPNKDLGLEYLSPSNDLDSVSVNSLDDNSVDVDKNSQEIKEHRPPHTPPEPDPEPLSVVLLGRQAGASGQLEGPSYTNAGLDTTDL [Q9BYE9]
hTERT-HMEC; [3]
  percentage of EdU-negative: 4.86 ± 0.083%
hTERT-HMEC; protein concentration 0.225 µM
  percentage of EdU-negative: 7.42 ± 0.98%
MCF7; [3]
  percentage of EdU-negative: 26.56 ± 0.19%
MCF7; protein concentration 0.225 µM
  percentage of EdU-negative: 26.4 ± 2.1%
